Laboratory results taken from US20190309059A1 (SHANGHAI PHARMAEXPLORER, published 2019).

Legend:
[1] = target: his-labeled human IL-13 (immunogen A) (human) (UniProt P35225); assay: FACS blocking, biotin-IL-13 on IL-13Ra2 HEK293 cells; antibody at 0.01 nM
[2] = target: his-labeled human IL-13 (immunogen A) (human) (UniProt P35225); assay: FACS blocking, biotin-IL-13 on IL-13Ra1/IL-4Ra HEK293 cells; antibody at 0.002 nM
[3] = target: his-labeled human IL-13 (immunogen A) (human) (UniProt P35225); assay: FACS blocking, biotin-IL-13 on IL-13Ra2 HEK293 cells; antibody at 33.33 nM
[4] = target: his-labeled human IL-13 (immunogen A) (human) (UniProt P35225); assay: FACS blocking, biotin-IL-13 on IL-13Ra2 HEK293 cells; antibody at 0.27 nM
[5] = target: his-labeled human IL-13 (immunogen A) (human) (UniProt P35225); assay: FACS blocking, biotin-IL-13 on IL-13Ra1/IL-4Ra HEK293 cells; antibody at 1.33 nM
[6] = target: cynomolgus IL-13 (purchased from sino biological) (cynomolgus) (UniProt Q0PW92); assay: ELISA, cynomolgus IL-13; antibody at 0.53 nM
[7] = target: his-labeled human IL-13 (immunogen A) (human) (UniProt P35225); assay: ELISA: biotin-labeled immunogen A on streptavidin plate, antibody titrated, HRP secondary antibody, OD450
[8] = target: his-labeled human IL-13 (immunogen A) (human) (UniProt P35225); assay: FACS blocking, biotin-IL-13 on IL-13Ra2 HEK293 cells; antibody at 6.67 nM
[9] = target: his-labeled human IL-13 (immunogen A) (human) (UniProt P35225); assay: FACS blocking, biotin-IL-13 on IL-13Ra1/IL-4Ra HEK293 cells; antibody at 0.05 nM
[10] = target: his-labeled human IL-13 (immunogen A) (human) (UniProt P35225); assay: FACS blocking, biotin-IL-13 on IL-13Ra1/IL-4Ra HEK293 cells; antibody at 6.67 nM
[11] = target: cynomolgus IL-13 (purchased from sino biological) (cynomolgus) (UniProt Q0PW92); assay: ELISA, cynomolgus IL-13; antibody at 0.004 nM
[12] = target: his-labeled human IL-13 (immunogen A) (human) (UniProt P35225); assay: FACS blocking, biotin-IL-13 on IL-13Ra1/IL-4Ra HEK293 cells; antibody at 0.27 nM
[13] = target: his-labeled human IL-13 (immunogen A) (human) (UniProt P35225); assay: ELISA, biotin-immunogen A; antibody at 0.001 nM
[14] = target: his-labeled human IL-13 (immunogen A) (human) (UniProt P35225); assay: ELISA, biotin-immunogen A; antibody at 2.67 nM
[15] = target: his-labeled human IL-13 (immunogen A) (human) (UniProt P35225); assay: FACS blocking, biotin-IL-13 on IL-13Ra1/IL-4Ra HEK293 cells; antibody at 33.33 nM
[16] = target: cynomolgus IL-13 (purchased from sino biological) (cynomolgus) (UniProt Q0PW92); assay: ELISA, cynomolgus IL-13; antibody at 0.11 nM
[17] = target: his-labeled human IL-13 (immunogen A) (human) (UniProt P35225); assay: FACS blocking, biotin-IL-13 on IL-13Ra2 HEK293 cells; antibody at 1.33 nM
[18] = target: his-labeled human IL-13 (immunogen A) (human) (UniProt P35225); assay: cell-based or functional assay
[19] = target: his-labeled human IL-13 (immunogen A) (human) (UniProt P35225); assay: FACS blocking, biotin-IL-13 on IL-13Ra2 HEK293 cells; antibody at 166.67 nM
[20] = target: his-labeled human IL-13 (immunogen A) (human) (UniProt P35225); assay: FACS blocking, biotin-IL-13 on IL-13Ra1/IL-4Ra HEK293 cells; antibody at 166.67 nM
[21] = target: his-labeled human IL-13 (immunogen A) (human) (UniProt P35225); assay: FACS blocking, biotin-IL-13 on IL-13Ra2 HEK293 cells; antibody at 0.05 nM
[22] = target: his-labeled human IL-13 (immunogen A) (human) (UniProt P35225); assay: FACS blocking, biotin-IL-13 on IL-13Ra2 HEK293 cells; antibody at 0.002 nM
[23] = target: cynomolgus IL-13 (purchased from sino biological) (cynomolgus) (UniProt Q0PW92); assay: ELISA, cynomolgus IL-13; antibody at 0.021 nM
[24] = target: his-labeled human IL-13 (immunogen A) (human) (UniProt P35225); assay: FACS blocking, biotin-IL-13 on IL-13Ra1/IL-4Ra HEK293 cells; antibody at 0.01 nM
[25] = target: cynomolgus IL-13 (purchased from sino biological) (cynomolgus) (UniProt Q0PW92); assay: ELISA, cynomolgus IL-13; antibody at 2.67 nM
[26] = target: cynomolgus IL-13 (purchased from sino biological) (cynomolgus) (UniProt Q0PW92); assay: ELISA, cynomolgus IL-13; antibody at 66.7 nM
[27] = target: his-labeled human IL-13R130Q variant (human) (UniProt P35225); assay: ELISA, IL-13R130Q variant; antibody at 13.33 nM
[28] = target: his-labeled human IL-13 (immunogen A) (human) (UniProt P35225); assay: SPR (Biacore), antibody captured by anti-human Fc, immunogen A as analyte

Chain of cynomolgus IL-13 (purchased from sino biological) (cynomolgus) (Q0PW92 entry or part of it): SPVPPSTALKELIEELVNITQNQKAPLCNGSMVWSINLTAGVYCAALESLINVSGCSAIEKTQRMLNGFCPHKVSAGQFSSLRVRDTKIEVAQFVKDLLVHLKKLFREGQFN
Chain of his-labeled human IL-13R130Q variant (human) (P35225 other isoform, or with tags, fused parts or gaps mutant): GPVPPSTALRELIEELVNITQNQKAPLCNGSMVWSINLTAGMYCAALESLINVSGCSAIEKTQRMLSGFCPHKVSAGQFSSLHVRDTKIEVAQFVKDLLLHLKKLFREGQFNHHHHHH

B1: 29D9H8 (lead antibody, mouse hybridoma) (antibody, V domains shown)
VH: QVQLQQSGAELVRPGASVTLSCKASGYTFTDYEMHWVKQTPVHGLEWIGGIDPETGGTASNQKFKGKAILTADKSSSTAYMELRSLTSEDSAVYYCTSGDYFGGGPFAYWGQGTLVTVSA
VL: DIKMTQSPSSMYASLGERVTITCKASQDINSYLSWFQQKPGKSPKTLIYRANRLVDGVPSRFSGSGSGQDYSLTISSLDYEDMGIYYCLQYDEFPYTFGGGTKLEIK
notes: Mouse monoclonal antibody purified from hybridoma supernatant on Protein G
mean fluorescence intensity [1]: 74.6
mean fluorescence intensity [2]: 75.3
mean fluorescence intensity [3]: 21.5
mean fluorescence intensity [4]: 45.4
mean fluorescence intensity [5]: 24
OD450 nm [6]: 2.05
EC50 (read off the curve) [7]: 0.1 nM
mean fluorescence intensity [8]: 23.6
mean fluorescence intensity [9]: 68.5
mean fluorescence intensity [10]: 16.6
OD450 nm [11]: 0.19
mean fluorescence intensity [12]: 45.3
OD450 nm [13]: 0.07
OD450 nm [14]: 1.61
mean fluorescence intensity [15]: 15.9
OD450 nm [16]: 1.24
mean fluorescence intensity [17]: 32.3
TARC (pg/mL), A549 cells + IL-13 5 ng/mL + TNFα; antibody at 0.001 nM [18]: 1910 pg/mL
TARC (pg/mL), A549 cells + IL-13 5 ng/mL + TNFα; antibody at 0.004 nM [18]: 1720 pg/mL
TARC (pg/mL), A549 cells + IL-13 5 ng/mL + TNFα; antibody at 0.021 nM [18]: 1600 pg/mL
TARC (pg/mL), A549 cells + IL-13 5 ng/mL + TNFα; antibody at 0.11 nM [18]: 1300 pg/mL
TARC (pg/mL), A549 cells + IL-13 5 ng/mL + TNFα; antibody at 0.5 nM [18]: 653 pg/mL
TARC (pg/mL), A549 cells + IL-13 5 ng/mL + TNFα; antibody at 2.7 nM [18]: 146 pg/mL
TARC (pg/mL), A549 cells + IL-13 5 ng/mL + TNFα; antibody at 13.3 nM [18]: 53 pg/mL
TARC (pg/mL), A549 cells + IL-13 5 ng/mL + TNFα; antibody at 66.7 nM [18]: 42 pg/mL
mean fluorescence intensity [19]: 20.5
mean fluorescence intensity [20]: 14.8
mean fluorescence intensity [21]: 67.6
mean fluorescence intensity [22]: 76.3
OD450 nm [23]: 0.56
mean fluorescence intensity [24]: 74.2
OD450 nm [25]: 2.36

B2: c35E2C3 (mouse-human chimeric IL-13 antibody) (antibody, V domains shown)
VH: EVQLQESGPGLAKPSQTLSLTCSVTGYSITSDYWNWIRKFPGNKLEYMGYISYNGNTYYNPSLKSQISITRDTSKNQLYLQLKSATTEDTATYYCARLAKWTWYFDIWGTGTTVTVSS
VL: DIQMNQSPSSLSASLGDTITITCHASQNINVWLSWYQQKPGSLPKLLIYKASDLHTGVPSRFSGSGSGTGFTLTISSLQPEDIATYYCQQGQSYPYTFGGGTKLEIK
mean fluorescence intensity [1]: 98.1
mean fluorescence intensity [2]: 102
mean fluorescence intensity [3]: 20.3
mean fluorescence intensity [4]: 63.8
mean fluorescence intensity [5]: 33.1
OD450 nm [6]: 0.59
EC50 (read off the curve) [7]: 0.4 nM
OD450 nm [26]: 3.8
mean fluorescence intensity [8]: 22.2
OD450 nm [27]: 3.3
mean fluorescence intensity [9]: 96.7
mean fluorescence intensity [10]: 19.5
OD450 nm [11]: 0.061
mean fluorescence intensity [12]: 81.5
OD450 nm [14]: 2.4
mean fluorescence intensity [15]: 19.6
mean fluorescence intensity [17]: 29
Periostin (pg/mL), MRCS cells + IL-13 5 ng/mL; antibody at 0.0002 nM [18]: 7100 pg/mL
Periostin (pg/mL), MRCS cells + IL-13 5 ng/mL; antibody at 0.001 nM [18]: 6020 pg/mL
Periostin (pg/mL), MRCS cells + IL-13 5 ng/mL; antibody at 0.004 nM [18]: 4870 pg/mL
Periostin (pg/mL), MRCS cells + IL-13 5 ng/mL; antibody at 0.021 nM [18]: 4480 pg/mL
Periostin (pg/mL), MRCS cells + IL-13 5 ng/mL; antibody at 0.11 nM [18]: 4360 pg/mL
Periostin (pg/mL), MRCS cells + IL-13 5 ng/mL; antibody at 0.53 nM [18]: 4460 pg/mL
Periostin (pg/mL), MRCS cells + IL-13 5 ng/mL; antibody at 2.67 nM [18]: 2850 pg/mL
Periostin (pg/mL), MRCS cells + IL-13 5 ng/mL; antibody at 13.3 nM [18]: 1350 pg/mL
TARC (pg/mL), A549 cells + IL-13 + TNFα; antibody at 0.001 nM [18]: 3200 pg/mL
TARC (pg/mL), A549 cells + IL-13 + TNFα; antibody at 0.004 nM [18]: 3150 pg/mL
TARC (pg/mL), A549 cells + IL-13 + TNFα; antibody at 0.021 nM [18]: 3040 pg/mL
TARC (pg/mL), A549 cells + IL-13 + TNFα; antibody at 0.11 nM [18]: 2610 pg/mL
TARC (pg/mL), A549 cells + IL-13 + TNFα; antibody at 0.53 nM [18]: 2370 pg/mL
TARC (pg/mL), A549 cells + IL-13 + TNFα; antibody at 2.67 nM [18]: 1090 pg/mL
TARC (pg/mL), A549 cells + IL-13 + TNFα; antibody at 13.3 nM [18]: 227 pg/mL
TARC (pg/mL), A549 cells + IL-13 + TNFα; antibody at 66.7 nM [18]: 54 pg/mL
VCAM-1 fluorescence intensity, HUVEC + IL-13 0.5 ng/mL + TNFα; antibody at 0.0002 nM [18]: 408
VCAM-1 fluorescence intensity, HUVEC + IL-13 0.5 ng/mL + TNFα; antibody at 0.001 nM [18]: 402
VCAM-1 fluorescence intensity, HUVEC + IL-13 0.5 ng/mL + TNFα; antibody at 0.004 nM [18]: 452
VCAM-1 fluorescence intensity, HUVEC + IL-13 0.5 ng/mL + TNFα; antibody at 0.021 nM [18]: 408
VCAM-1 fluorescence intensity, HUVEC + IL-13 0.5 ng/mL + TNFα; antibody at 0.11 nM [18]: 313
VCAM-1 fluorescence intensity, HUVEC + IL-13 0.5 ng/mL + TNFα; antibody at 0.53 nM [18]: 299
VCAM-1 fluorescence intensity, HUVEC + IL-13 0.5 ng/mL + TNFα; antibody at 2.67 nM [18]: 238
VCAM-1 fluorescence intensity, HUVEC + IL-13 0.5 ng/mL + TNFα; antibody at 13.3 nM [18]: 165
mean fluorescence intensity [19]: 19.3
mean fluorescence intensity [20]: 18.7
mean fluorescence intensity [21]: 90
mean fluorescence intensity [22]: 99.1
OD450 nm [23]: 0.136
Kd [28]: 0.863 nM
koff [28]: 0.00026 s⁻¹
kon [28]: 300000 M⁻¹ s⁻¹
mean fluorescence intensity [24]: 96.8
OD450 nm [25]: 1.63
